Test results taken from paper PMC9482650, “Quantitative fragmentomics allow affinity mapping of interactomes” (Nature Communications, 2022).

Experiments:
Type in all cases: cell-based, human
HEK293T cells [1] = test: RT-qPCR of mRNA levels in stable cell lines; settings: source data of Suppl Figure 4 B, stable HEK293T cell line; for DLG1 relative mRNA level / GFP relative mRNA level / MAGI1 relative mRNA level / RPLP0 relative mRNA level / SCRIB relative mRNA level / SNTB2 relative mRNA level / SNX27 relative mRNA level / SYNJ2BP relative mRNA level / TAX1BP3 relative mRNA level / p53 relative mRNA level: IRES control line about 1
Experimental: Cells were plated on 6-well plates. When they reached confluency, RNA was isolated by using Qiagen RNeasy Mini kit (#74104). On-column DNase digestion was done by using Qiagen RNase-Free DNase Set (#79254). 2 μg total RNA per sample was transcribed to cDNA by using SuperScript IV kit (Invitrogen, #18091050) with random hexamer primers (Thermo Fisher #SO142) according to standard protocol. For qPCR, primers were designed with the help of Primer Blast (NCBI NIH, https://www.ncbi.nlm.nih.gov/tools/primer-blast/) choosing primers which recognize all common alternative transcripts of the given gene (Supplementary Fig 4). qPCR was done by using QuantiTect SyberGreen (Qiagen, #204143) and LightCycler II equipment (Roche). Standard ΔΔCt method was used to determine relative quantity to GAPDH. For further analyses GraphPad Prism 7 software was used.

SCRIB = test: Western blot in stable HEK293T cell lines; settings: for SCRIB relative protein level: source data of Figure 6 E, stable HEK293T cell line, IRES control line about 1
HEK293T cells [2] = test: Western blot of PDZ-proteins, p53 and E6AP in stable cell lines; settings: source data of Figure 6 E, stable HEK293T cell line, IRES control line about 1
HEK293T cells [3] = test: Label-free MS proteome of stable cell lines expressing HPV16 E6 or E6ΔPBM; settings: source data of Figure 6 D, IRES control line about 1; for p53 relative protein level: stable HEK293T cell line expressing the construct; for AHNAK relative protein level / LIN7C relative protein level / MPP6 relative protein level / SNX27 relative protein level: stable HEK293T cell line
In short: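 Confluent HEK293T lysates in HEPES-KOH pH 7.5, 1% Triton X-100 buffer, TCA-precipitated, reduced, alkylated, Lys-C then trypsin digested. nanoLC (90 min gradient) on LTQ-Orbitrap Elite, TOP20 CID data-dependent acquisition; SequestHT search of human SwissProt, 1% FDR. Label-free quantification by peptide XIC intensity, technical triplicates.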

HUWE1 = test: Label-free MS proteome of stable HEK293T cell lines; settings: stable HEK293T cells compared to control cell line, n = 3
Text: Proteins were identified by database searching using SequestHT (Thermo Fisher Scientific) with Proteome Discoverer 2.4 software (PD2.4, Thermo Fisher Scientific) on human FASTA database downloaded from SwissProt (reviewed, release 2020_11_27, 20304 entries, https://www.uniprot.org/). Precursor and fragment mass tolerances were set at 7 ppm and 0.6 Da respectively, and up to two missed cleavages were allowed. Oxidation (M, +15.995 Da) was set as variable modification, and Carbamidomethylation (C, +57.021 Da) as fixed modification. Peptides and proteins were filtered with a false discovery rate at 1%. Label-free quantification was based on the extracted ion chromatography intensity of the peptides. All samples were measured in technical triplicates. The measured extracted ion chromatogram (XIC) intensities were normalized based on median intensities of the entire dataset to correct minor loading differences. […] The detection threshold for enriched proteins in AP-MS experiments were analyzed above twofold enrichment with <0.01 P value. […] In case only a specific isoform of the detected protein contains a PBM, the identified peptide fragments were manually checked to check which isoform(s) were most likely detected. […]

B1: E6: wild-type HPV16 E6 oncoprotein stably expressed in HEK293T cells (protein, UniProt P03126 1-158, looked up)
chain: MHQKRTAMFQDPQERPRKLPQLCTELQTTIHDIILECVYCKQQLLRREVYDFAFRDLCIVYRDGNPYAVCDKCLKFYSKISEYRHYCYSLYGTTLEQQYNKPLCDLLIRCINCQKPLCPEEKQRHLDKKQRFHNIRGRWTGRCMSCCRSSRTRRETQL
modifications: full-length
notes: wild-type HPV16 E6 oncoprotein stably expressed in HEK293T cells
DLG1 relative mRNA level (HEK293T cells [1]; replicate 1): 1.01 | GFP relative mRNA level (HEK293T cells [1]; replicate 1): 0.3883 | MAGI1 relative mRNA level (HEK293T cells [1]; replicate 1): 1.0722 | RPLP0 relative mRNA level (HEK293T cells [1]; replicate 1): 0.9236 | SCRIB relative mRNA level (HEK293T cells [1]; replicate 1): 0.9974 | SNTB2 relative mRNA level (HEK293T cells [1]; replicate 1): 1.021 | SNX27 relative mRNA level (HEK293T cells [1]; replicate 1): 1.06 | SYNJ2BP relative mRNA level (HEK293T cells [1]; replicate 1): 0.9318 | TAX1BP3 relative mRNA level (HEK293T cells [1]; replicate 1): 0.9978 | p53 relative mRNA level (HEK293T cells [1]; replicate 1): 1.205 | DLG1 relative mRNA level (HEK293T cells [1]; replicate 2): 0.9789 | GFP relative mRNA level (HEK293T cells [1]; replicate 2): 0.361 | MAGI1 relative mRNA level (HEK293T cells [1]; replicate 2): 1.194 | RPLP0 relative mRNA level (HEK293T cells [1]; replicate 2): 0.9077 | SCRIB relative mRNA level (HEK293T cells [1]; replicate 2): 0.9906 | SNTB2 relative mRNA level (HEK293T cells [1]; replicate 2): 1.145 | SNX27 relative mRNA level (HEK293T cells [1]; replicate 2): 1.0167 | SYNJ2BP relative mRNA level (HEK293T cells [1]; replicate 2): 1.042 | TAX1BP3 relative mRNA level (HEK293T cells [1]; replicate 2): 1.009 | p53 relative mRNA level (HEK293T cells [1]; replicate 2): 1.147 | DLG1 relative mRNA level (HEK293T cells [1]; replicate 3): 0.8765 | GFP relative mRNA level (HEK293T cells [1]; replicate 3): 0.3884 | MAGI1 relative mRNA level (HEK293T cells [1]; replicate 3): 0.864 | RPLP0 relative mRNA level (HEK293T cells [1]; replicate 3): 1.0145 | SCRIB relative mRNA level (HEK293T cells [1]; replicate 3): 0.879 | SNTB2 relative mRNA level (HEK293T cells [1]; replicate 3): 0.9516 | SNX27 relative mRNA level (HEK293T cells [1]; replicate 3): 0.8492 | SYNJ2BP relative mRNA level (HEK293T cells [1]; replicate 3): 0.8794 | TAX1BP3 relative mRNA level (HEK293T cells [1]; replicate 3): 0.9092 | p53 relative mRNA level (HEK293T cells [1]; replicate 3): 0.9937 | HPV16 E6 relative mRNA level (HEK293T cells [1]; replicate 1): 0.5053 | HPV16 E6 relative mRNA level (HEK293T cells [1]; replicate 2): 0.4889 | HPV16 E6 relative mRNA level (HEK293T cells [1]; replicate 3): 0.4569 | SCRIB relative protein level (SCRIB; replicate 1): 0.8205 | SCRIB relative protein level (SCRIB; replicate 2): 0.6696 | SCRIB relative protein level (SCRIB; replicate 3): 0.6225 | decrease of SCRIB levels (SCRIB; western blot, GAPDH normalized, stable HEK293T cells compared to control cells, n = 3): ~ 30% | E6AP relative protein level (HEK293T cells [2]; replicate 1): 0.1109 | MAGI1 relative protein level (HEK293T cells [2]; replicate 1): 1.104 | SNX27 relative protein level (HEK293T cells [2]; replicate 1): 1.182 | p53 relative protein level (HEK293T cells [2]; replicate 1): 0.0349 | E6AP relative protein level (HEK293T cells [2]; replicate 2): 0.2467 | MAGI1 relative protein level (HEK293T cells [2]; replicate 2): 0.7612 | SNX27 relative protein level (HEK293T cells [2]; replicate 2): 0.5109 | p53 relative protein level (HEK293T cells [2]; replicate 2): 0.03479 | E6AP relative protein level (HEK293T cells [2]; replicate 3): 0.1353 | MAGI1 relative protein level (HEK293T cells [2]; replicate 3): 0.6199 | SNX27 relative protein level (HEK293T cells [2]; replicate 3): 0.8346 | p53 relative protein level (HEK293T cells [2]; replicate 3): 0.01425 | p53 relative protein level (HEK293T cells [3]; replicate 1): 0.1537 | p53 relative protein level (HEK293T cells [3]; replicate 2): 0.2546 | p53 relative protein level (HEK293T cells [3]; replicate 3): 0.1997 | AHNAK relative protein level (HEK293T cells [3]; replicate 1): 0.9544 | LIN7C relative protein level (HEK293T cells [3]; replicate 1): 0.7333 | MPP6 relative protein level (HEK293T cells [3]; replicate 1): 0.8283 | SNX27 relative protein level (HEK293T cells [3]; replicate 1): 0.8078 | AHNAK relative protein level (HEK293T cells [3]; replicate 2): 0.9923 | LIN7C relative protein level (HEK293T cells [3]; replicate 2): 0.764 | MPP6 relative protein level (HEK293T cells [3]; replicate 2): 0.8646 | SNX27 relative protein level (HEK293T cells [3]; replicate 2): 1.3738 | AHNAK relative protein level (HEK293T cells [3]; replicate 3): 1.222 | LIN7C relative protein level (HEK293T cells [3]; replicate 3): 1.025 | MPP6 relative protein level (HEK293T cells [3]; replicate 3): 0.4141 | SNX27 relative protein level (HEK293T cells [3]; replicate 3): 1.15 | change of HUWE1 concentration (HUWE1): decreased by threefold
